Reference: PMC8246079 (Chemical Science, 2021)
Like-named read-outs stand apart in the source and are kept apart here. Non-standard residues stand in square brackets, D forms with d. No end group written: not given here. Lys(Me3) = C[N+](C)(C)CCCC[C@H](N)C(=O)O

Legend:
Experiment in all cases: ITC
BPTF PHD domain Y23M [1] = biological target: BPTF PHD domain Y23M
[2] = biological target: DIDO1 (death inducer obliterator 1) PHD domain, wild type
[3] = biological target: TAF3 PHD domain M900Q/M907Q (the paper's wild-type construct) (UniProt Q5VWG9)
[4] = biological target: TAF3 PHD domain M900Q/M907Q with norleucine in place of M882 (Nle mutant) (UniProt Q5VWG9)
[5] = biological target: TAF3 PHD domain M900Q/M907Q with selenomethionine in place of M882 (SeMet mutant) (UniProt Q5VWG9)
BPTF PHD domain Y23M [6] = biological target: BPTF PHD domain Y23M; remark: listed apart in the source
DIDO1 PHD domain M35C = DIDO1 PHD domain M35C (UniProt Q9BTC0)
[7] = biological target: DIDO1 PHD domain with selenomethionine in place of methionine (SeMet mutant) (UniProt Q9BTC0)
TAF3 PHD domain M882A = TAF3 PHD domain M882A (UniProt Q5VWG9)
[8] = biological target: TAF3 PHD domain M900Q/M907Q (the paper's wild-type construct) (UniProt Q5VWG9); remark: listed apart in the source
[9] = biological target: TAF3 PHD domain M900Q/M907Q with norleucine in place of M882 (Nle mutant) (UniProt Q5VWG9); remark: listed apart in the source
[10] = biological target: TAF3 PHD domain M900Q/M907Q with selenomethionine in place of M882 (SeMet mutant) (UniProt Q5VWG9); remark: listed apart in the source
[11] = biological target: T1, DIDO1 (death inducer obliterator 1) PHD domain, wild type (UniProt Q9BTC0 266-325)
T1 sequence: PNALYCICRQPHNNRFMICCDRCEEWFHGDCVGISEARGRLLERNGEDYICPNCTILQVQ

Molecule: Histone H3 peptide with tert-butyl norleucine in place of K4 (H3K4tBuNle 1-13, with a C-terminal Tyr)
- Kd (BPTF PHD domain Y23M [1]): 7.48 µM
- Kd [2]: 2.9 µM

Molecule: histone H3 tail peptide with tert-butyl norleucine in place of K4me3 (H3K4tBuNle), ARTX… with X = tBuNle
- Kd [3]: 10.7 µM
- Kd [4]: 13.7 µM
- Kd [5]: 8.3 µM

Molecule: ART[Lys(Me3)]QTARKSTGGY [histone H3 tail peptide trimethylated at K4 (H3K4me3), ARTX… with X = Kme3]
- Kd (BPTF PHD domain Y23M [6]): 7.5 µM
- Kd (DIDO1 PHD domain M35C): 36 µM
- Kd [7]: 4.2 µM
- Kd (TAF3 PHD domain M882A): 120 µM
- Kd [8]: 1.05 µM
- Kd [9]: 1.7 µM
- Kd [10]: 0.84 µM

Molecule: ART[Lys(Me3)]QTARKSTGGY [histone H3 tail peptide trimethylated at K4 (H3K4me3), ARTXQTARKSTGGY with X = Kme3]
- Kd [11]: 2.28 µM
